Non-standard residues stand in square brackets, D forms with d. 1Nal = N[C@@H](Cc1cccc2ccccc12)C(=O)O; Nle = CCCC[C@H](N)C(=O)O; Aib = CC(C)(N)C(=O)O
B1: SEQ ID NO: 44 (peptide)
peptide: Ac-LEGREKVRAQI[Aib][Aib]EG[Nle]STWS[Aib]RK-NH2
SMILES: CCCC[C@H](NC(=O)CNC(=O)[C@H](CCC(=O)O)NC(=O)C(C)(C)NC(=O)C(C)(C)NC(=O)[C@@H](NC(=O)[C@H](CCC(N)=O)NC(=O)[C@H](C)NC(=O)[C@H](CCCNC(=N)N)NC(=O)[C@@H](NC(=O)[C@H](CCCCN)NC(=O)[C@H](CCC(=O)O)NC(=O)[C@H](CCCNC(=N)N)NC(=O)CNC(=O)[C@H](CCC(=O)O)NC(=O)[C@H](CC(C)C)NC(C)=O)C(C)C)[C@@H](C)CC)C(=O)N[C@@H](CO)C(=O)N[C@H](C(=O)N[C@@H](Cc1c[nH]c2ccccc12)C(=O)N[C@@H](CO)C(=O)NC(C)(C)C(=O)N[C@@H](CCCNC(=N)N)C(=O)N[C@@H](CCCCN)C(N)=O)[C@@H](C)O
B2: SEQ ID NO: 46 (peptide)
peptide: Ac-LEGREKVRAQI[Aib][Aib]EGMSKWS[Aib]R-NH2
SMILES: CC[C@H](C)[C@H](NC(=O)[C@H](CCC(N)=O)NC(=O)[C@H](C)NC(=O)[C@H](CCCNC(=N)N)NC(=O)[C@@H](NC(=O)[C@H](CCCCN)NC(=O)[C@H](CCC(=O)O)NC(=O)[C@H](CCCNC(=N)N)NC(=O)CNC(=O)[C@H](CCC(=O)O)NC(=O)[C@H](CC(C)C)NC(C)=O)C(C)C)C(=O)NC(C)(C)C(=O)NC(C)(C)C(=O)N[C@@H](CCC(=O)O)C(=O)NCC(=O)N[C@@H](CCSC)C(=O)N[C@@H](CO)C(=O)N[C@@H](CCCCN)C(=O)N[C@@H](Cc1c[nH]c2ccccc12)C(=O)N[C@@H](CO)C(=O)NC(C)(C)C(=O)N[C@@H](CCCNC(=N)N)C(N)=O
B3: SEQ ID NO: 45 (peptide)
peptide: Ac-LEGREKVRAQI[Aib][Aib]EGMSTWS[Aib]RK-NH2
SMILES: CC[C@H](C)[C@H](NC(=O)[C@H](CCC(N)=O)NC(=O)[C@H](C)NC(=O)[C@H](CCCNC(=N)N)NC(=O)[C@@H](NC(=O)[C@H](CCCCN)NC(=O)[C@H](CCC(=O)O)NC(=O)[C@H](CCCNC(=N)N)NC(=O)CNC(=O)[C@H](CCC(=O)O)NC(=O)[C@H](CC(C)C)NC(C)=O)C(C)C)C(=O)NC(C)(C)C(=O)NC(C)(C)C(=O)N[C@@H](CCC(=O)O)C(=O)NCC(=O)N[C@@H](CCSC)C(=O)N[C@@H](CO)C(=O)N[C@H](C(=O)N[C@@H](Cc1c[nH]c2ccccc12)C(=O)N[C@@H](CO)C(=O)NC(C)(C)C(=O)N[C@@H](CCCNC(=N)N)C(=O)N[C@@H](CCCCN)C(N)=O)[C@@H](C)O
B4: SEQ ID NO: 37 (peptide)
peptide: Ac-LEGREKVRAQI[Aib][Aib]EG[Nle]ST[1Nal]SKR-NH2
SMILES: CCCC[C@H](NC(=O)CNC(=O)[C@H](CCC(=O)O)NC(=O)C(C)(C)NC(=O)C(C)(C)NC(=O)[C@@H](NC(=O)[C@H](CCC(N)=O)NC(=O)[C@H](C)NC(=O)[C@H](CCCNC(=N)N)NC(=O)[C@@H](NC(=O)[C@H](CCCCN)NC(=O)[C@H](CCC(=O)O)NC(=O)[C@H](CCCNC(=N)N)NC(=O)CNC(=O)[C@H](CCC(=O)O)NC(=O)[C@H](CC(C)C)NC(C)=O)C(C)C)[C@@H](C)CC)C(=O)N[C@@H](CO)C(=O)N[C@H](C(=O)N[C@@H](Cc1cccc2ccccc12)C(=O)N[C@@H](CO)C(=O)N[C@@H](CCCCN)C(=O)N[C@@H](CCCNC(=N)N)C(N)=O)[C@@H](C)O
B5: SEQ ID NO: 41 (peptide)
peptide: Ac-LEGREKVRAQI[Aib][Aib]EGMSTWS[Aib]R-NH2
SMILES: CC[C@H](C)[C@H](NC(=O)[C@H](CCC(N)=O)NC(=O)[C@H](C)NC(=O)[C@H](CCCNC(=N)N)NC(=O)[C@@H](NC(=O)[C@H](CCCCN)NC(=O)[C@H](CCC(=O)O)NC(=O)[C@H](CCCNC(=N)N)NC(=O)CNC(=O)[C@H](CCC(=O)O)NC(=O)[C@H](CC(C)C)NC(C)=O)C(C)C)C(=O)NC(C)(C)C(=O)NC(C)(C)C(=O)N[C@@H](CCC(=O)O)C(=O)NCC(=O)N[C@@H](CCSC)C(=O)N[C@@H](CO)C(=O)N[C@H](C(=O)N[C@@H](Cc1c[nH]c2ccccc12)C(=O)N[C@@H](CO)C(=O)NC(C)(C)C(=O)N[C@@H](CCCNC(=N)N)C(N)=O)[C@@H](C)O
B6: SEQ ID NO: 40 (peptide)
peptide: Ac-LEGREKVRAQI[Aib][Aib]EGMSTWSKR-NH2
SMILES: CC[C@H](C)[C@H](NC(=O)[C@H](CCC(N)=O)NC(=O)[C@H](C)NC(=O)[C@H](CCCNC(=N)N)NC(=O)[C@@H](NC(=O)[C@H](CCCCN)NC(=O)[C@H](CCC(=O)O)NC(=O)[C@H](CCCNC(=N)N)NC(=O)CNC(=O)[C@H](CCC(=O)O)NC(=O)[C@H](CC(C)C)NC(C)=O)C(C)C)C(=O)NC(C)(C)C(=O)NC(C)(C)C(=O)N[C@@H](CCC(=O)O)C(=O)NCC(=O)N[C@@H](CCSC)C(=O)N[C@@H](CO)C(=O)N[C@H](C(=O)N[C@@H](Cc1c[nH]c2ccccc12)C(=O)N[C@@H](CO)C(=O)N[C@@H](CCCCN)C(=O)N[C@@H](CCCNC(=N)N)C(N)=O)[C@@H](C)O
B7: SEQ ID NO: 42 (peptide)
peptide: Ac-LEGREKVR[Aib]QI[Aib][Aib]EGMSTWS[Aib]R-NH2
SMILES: CC[C@H](C)[C@H](NC(=O)[C@H](CCC(N)=O)NC(=O)C(C)(C)NC(=O)[C@H](CCCNC(=N)N)NC(=O)[C@@H](NC(=O)[C@H](CCCCN)NC(=O)[C@H](CCC(=O)O)NC(=O)[C@H](CCCNC(=N)N)NC(=O)CNC(=O)[C@H](CCC(=O)O)NC(=O)[C@H](CC(C)C)NC(C)=O)C(C)C)C(=O)NC(C)(C)C(=O)NC(C)(C)C(=O)N[C@@H](CCC(=O)O)C(=O)NCC(=O)N[C@@H](CCSC)C(=O)N[C@@H](CO)C(=O)N[C@H](C(=O)N[C@@H](Cc1c[nH]c2ccccc12)C(=O)N[C@@H](CO)C(=O)NC(C)(C)C(=O)N[C@@H](CCCNC(=N)N)C(N)=O)[C@@H](C)O
B8: SEQ ID NO: 43 (peptide)
peptide: Ac-LEGREKVRA[Aib]I[Aib][Aib]EGMSTWS[Aib]R-NH2
SMILES: CC[C@H](C)[C@H](NC(=O)C(C)(C)NC(=O)[C@H](C)NC(=O)[C@H](CCCNC(=N)N)NC(=O)[C@@H](NC(=O)[C@H](CCCCN)NC(=O)[C@H](CCC(=O)O)NC(=O)[C@H](CCCNC(=N)N)NC(=O)CNC(=O)[C@H](CCC(=O)O)NC(=O)[C@H](CC(C)C)NC(C)=O)C(C)C)C(=O)NC(C)(C)C(=O)NC(C)(C)C(=O)N[C@@H](CCC(=O)O)C(=O)NCC(=O)N[C@@H](CCSC)C(=O)N[C@@H](CO)C(=O)N[C@H](C(=O)N[C@@H](Cc1c[nH]c2ccccc12)C(=O)N[C@@H](CO)C(=O)NC(C)(C)C(=O)N[C@@H](CCCNC(=N)N)C(N)=O)[C@@H](C)O
B9: SEQ ID NO: 38 (peptide)
peptide: Ac-LEGREKVRAQI[Aib][Aib]EGMSKWSKR-NH2
SMILES: CC[C@H](C)[C@H](NC(=O)[C@H](CCC(N)=O)NC(=O)[C@H](C)NC(=O)[C@H](CCCNC(=N)N)NC(=O)[C@@H](NC(=O)[C@H](CCCCN)NC(=O)[C@H](CCC(=O)O)NC(=O)[C@H](CCCNC(=N)N)NC(=O)CNC(=O)[C@H](CCC(=O)O)NC(=O)[C@H](CC(C)C)NC(C)=O)C(C)C)C(=O)NC(C)(C)C(=O)NC(C)(C)C(=O)N[C@@H](CCC(=O)O)C(=O)NCC(=O)N[C@@H](CCSC)C(=O)N[C@@H](CO)C(=O)N[C@@H](CCCCN)C(=O)N[C@@H](Cc1c[nH]c2ccccc12)C(=O)N[C@@H](CO)C(=O)N[C@@H](CCCCN)C(=O)N[C@@H](CCCNC(=N)N)C(N)=O
B10: SEQ ID NO: 47 (peptide)
peptide: Ac-LEGREKVRAK(Ac)I[Aib][Aib]EG[Nle]STWS[Aib]RK-NH2
SMILES: CCCC[C@H](NC(=O)CNC(=O)[C@H](CCC(=O)O)NC(=O)C(C)(C)NC(=O)C(C)(C)NC(=O)[C@@H](NC(=O)[C@H](CCCCNC(C)=O)NC(=O)[C@H](C)NC(=O)[C@H](CCCNC(=N)N)NC(=O)[C@@H](NC(=O)[C@H](CCCCN)NC(=O)[C@H](CCC(=O)O)NC(=O)[C@H](CCCNC(=N)N)NC(=O)CNC(=O)[C@H](CCC(=O)O)NC(=O)[C@H](CC(C)C)NC(C)=O)C(C)C)[C@@H](C)CC)C(=O)N[C@@H](CO)C(=O)N[C@H](C(=O)N[C@@H](Cc1c[nH]c2ccccc12)C(=O)N[C@@H](CO)C(=O)NC(C)(C)C(=O)N[C@@H](CCCNC(=N)N)C(=O)N[C@@H](CCCCN)C(N)=O)[C@@H](C)O

The binders below were run against T1, RXFP1 receptor (UniProt Q9HBX9 1-757, limits assumed) (assay: cell-based or functional assay).
T1 sequence (looked up): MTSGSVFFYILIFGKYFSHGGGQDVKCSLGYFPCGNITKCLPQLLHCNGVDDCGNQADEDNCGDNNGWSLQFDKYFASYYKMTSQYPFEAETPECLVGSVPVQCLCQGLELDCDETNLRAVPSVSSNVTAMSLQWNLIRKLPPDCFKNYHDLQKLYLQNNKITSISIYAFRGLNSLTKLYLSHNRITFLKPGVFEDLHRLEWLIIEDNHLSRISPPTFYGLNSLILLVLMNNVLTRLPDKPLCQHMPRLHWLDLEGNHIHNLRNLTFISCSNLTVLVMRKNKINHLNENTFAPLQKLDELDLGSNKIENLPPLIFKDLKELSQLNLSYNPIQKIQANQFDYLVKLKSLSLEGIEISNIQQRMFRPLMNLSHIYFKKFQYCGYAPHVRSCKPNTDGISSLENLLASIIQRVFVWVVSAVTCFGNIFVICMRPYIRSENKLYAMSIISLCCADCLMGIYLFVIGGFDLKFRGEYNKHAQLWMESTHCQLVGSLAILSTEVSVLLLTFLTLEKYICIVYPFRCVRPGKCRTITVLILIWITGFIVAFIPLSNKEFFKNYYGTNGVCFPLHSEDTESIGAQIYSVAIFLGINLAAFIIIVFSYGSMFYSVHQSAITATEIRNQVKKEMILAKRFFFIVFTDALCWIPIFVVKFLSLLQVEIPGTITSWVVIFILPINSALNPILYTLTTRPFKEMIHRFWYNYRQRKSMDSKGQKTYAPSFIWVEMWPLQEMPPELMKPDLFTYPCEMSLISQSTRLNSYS

Binder | cAMP assay in OVCAR 5 cells EC50 [nM] | cAMP assay in OVCAR 5 cells Emax [%]
B1 | 82 | 101
B2 | 26.7 | 82
B3 | 126 | 98
B4 | 52.4 | 104
B5 | 45 | 106
B6 | 31.9 | 103
B7 | 251 | 104
B8 | 190 | 104
B9 | 10.7 | 102
B10 | 117 | 94
